{"source": "the supplement of paper PMC9170038", "system": "MS2 coat protein", "test": "apparent KD of MS2 coat protein; designed switch direction (-1 OFF switch, 1 ON switch): -1; higher = weaker reporter binding", "how_it_was_run": "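Designed RNA switches with common flanks were made on Illumina chips by stalled E. coli RNA polymerase. Titration with SNAP-549-labelled MS2 coat protein doubled from 0.7 or 1.5 nM up to 3 µM. Apparent KD is each design's median over clusters after curve-fitting normalised fluorescence.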", "key": {"[1]": {"settings": "Eterna round: R95, input ligand: microRNA oligo, concentration not stated"}, "[2]": {"settings": "Eterna round: R95, input ligand: FMN 200 uM"}, "[3]": {"settings": "Eterna round: R95, input ligand: none"}, "[4]": {"settings": "input ligand: microRNA oligo, concentration not stated"}}}
{"sequence": "AAUAACAAGCCGAUCCUCAACAUGAGGAUCACCCAUGUGCUCGUCUUGUAAAGUACUAUCACGAAAGUGAUAGUACA (Eterna round: R97, puzzle: Sensor, turn-off variant 1)", "values": [{"measurement": "apparent KD of MS2 coat protein", "setting": "input ligand: FMN 200 uM", "result": 319, "unit": "nM"}, {"measurement": "apparent KD of MS2 coat protein", "setting": "input ligand: none", "result": 419, "unit": "nM"}]}
{"sequence": "AAUAACAAGCCGAUCCUUAACAUGAGGAUCACCCAUGUGCUCGUCUUGUAAAGUACUAUCACGAAAGUGAUAGUACA (Eterna round: R97, puzzle: Sensor, turn-off variant 1)", "values": [{"measurement": "apparent KD of MS2 coat protein", "setting": "input ligand: FMN 200 uM", "result": 25.1, "unit": "nM"}, {"measurement": "apparent KD of MS2 coat protein", "setting": "input ligand: none", "result": 22.7, "unit": "nM"}]}
{"sequence": "AAUAACAGAGGAUAUACUAUUUUAUGUAUUUAUUAUUUUAAACAUGAGGAUCACCCAUGUAGAAGGCUGAUUGA [JMF 70] (puzzle: Exclusion 2)", "values": [{"measurement": "apparent KD of MS2 coat protein", "setting": "[1]", "result": 28.5, "unit": "nM"}]}
{"sequence": "AAUAACAGAGGAUAUACUAUUUUAUGUGUUUGUUAUUUUAAACAUGAGGAUCACCCAUGUAGAAGGCUGAGUAA [JMF 29] (puzzle: Exclusion 2)", "values": [{"measurement": "apparent KD of MS2 coat protein", "setting": "[1]", "result": 21.9, "unit": "nM"}]}
{"sequence": "AAUAACAGAGGAUAUACUAUUUUAUGUGUUUGUUAUUUUGAACAUGAGGAUCACCCAUGUAGAAGGCUGAAUGA [JMF 65] (puzzle: Exclusion 2)", "values": [{"measurement": "apparent KD of MS2 coat protein", "setting": "[1]", "result": 24.7, "unit": "nM"}]}
{"sequence": "AAUAACAGAGGAUAUACUGUUUUAUGUGUUUGUUAUUUUGAACAUGAGGAUCACCCAUGUAGAAGGCUGAUUGA [JMF 76] (puzzle: Exclusion 2)", "values": [{"measurement": "apparent KD of MS2 coat protein", "setting": "[1]", "result": 46, "unit": "nM"}]}
{"sequence": "AAUAACAUGUUGAUCAAAGACAUGAGGAUCACCCAUGUCAGCUUUUUGUUCGUAGAUUAACACUAAUAAUAAUAAUA [Stov1new/2-C] (Eterna round: R97, puzzle: Sensor, turn-off variant 1)", "values": [{"measurement": "apparent KD of MS2 coat protein", "setting": "input ligand: FMN 200 uM", "result": 16.5, "unit": "nM"}, {"measurement": "apparent KD of MS2 coat protein", "setting": "input ligand: none", "result": 16.5, "unit": "nM"}]}
{"sequence": "AAUAACUGAGGAUAUACUAAAAUAUGAAUAAAAUAAAUAAAACAUGAGGAUCACCCAUGUAGAAGGCAGAAUAA [JMF's Not so obvious solution 8] (puzzle: Exclusion 2)", "values": [{"measurement": "apparent KD of MS2 coat protein", "setting": "[2]", "result": 21.4, "unit": "nM"}, {"measurement": "apparent KD of MS2 coat protein", "setting": "[1]", "result": 23.3, "unit": "nM"}, {"measurement": "apparent KD of MS2 coat protein", "setting": "[3]", "result": 21.5, "unit": "nM"}]}
{"sequence": "AAUAAGCGAGGAUAUACUAUUCCUCGACCGGCAGAAACCGGACUUGAGGAUCACCCAAGUAGAAGGCGCAAAAC [Oninso] (Eterna round: R97, puzzle: Exclusion 2)", "values": [{"measurement": "apparent KD of MS2 coat protein", "setting": "input ligand: FMN 200 uM", "result": 448, "unit": "nM"}, {"measurement": "apparent KD of MS2 coat protein", "setting": "input ligand: none", "result": 32.8, "unit": "nM"}]}
{"sequence": "AAUAAGCUAGGAUAUACAUGAGGAUCACCCAUGUGAGGGCACGGCCGGCGCGUUUCCGGUAGAAGGAGUCAUAA [Exc;s3-VII] (puzzle: Exclusion 3)", "values": [{"measurement": "apparent KD of MS2 coat protein", "setting": "[1]", "result": 33.2, "unit": "nM"}]}
{"sequence": "AAUACAAGCAAGAUCCUAAACAUGAGGAUCACCCAUGUGCUCGUCUUGUAAAGUACUAUCACGAAAGUGAUAGUACA [Sensor 3, v1 - 62] (puzzle: Sensor v3, turn-off variant 1)", "values": [{"measurement": "apparent KD of MS2 coat protein", "setting": "[2]", "result": 29.4, "unit": "nM"}, {"measurement": "apparent KD of MS2 coat protein", "setting": "[1]", "result": 103, "unit": "nM"}, {"measurement": "apparent KD of MS2 coat protein", "setting": "[3]", "result": 32.7, "unit": "nM"}]}
{"sequence": "AAUAGACAUGAGGAUCACCCAUGUCAGGAUAUUUCGAGUAAGGUGGGCCUAGAAUUGGGAAGAAGGGACCUGGA [Eternabot (L1) Solution 29] (Eterna round: R97, puzzle: Exclusion 1)", "values": [{"measurement": "apparent KD of MS2 coat protein", "setting": "input ligand: FMN 200 uM", "result": 17.7, "unit": "nM"}, {"measurement": "apparent KD of MS2 coat protein", "setting": "input ligand: none", "result": 21.3, "unit": "nM"}]}
{"sequence": "AAUCAUCAUGUAGGAUAUGCGUGGCGAAGCUAUGCAGAAGGACAUGAGGAUCACCCAUGUUCUUGCGUCUGCGUACAGAUGCAA [Mat - Exclusion NG 1 - Mod of JL - D72] (Eterna round: R96, puzzle: Exclusion NG 1)", "values": [{"measurement": "apparent KD of MS2 coat protein", "setting": "input ligand: FMN 200 uM", "result": 135, "unit": "nM"}, {"measurement": "apparent KD of MS2 coat protein", "setting": "[4]", "result": 67.7, "unit": "nM"}, {"measurement": "apparent KD of MS2 coat protein", "setting": "input ligand: none", "result": 72, "unit": "nM"}]}
{"sequence": "AAUCGGUGAGGAUAUCUAUUGCGGGAGGAAAUUCGCGAAACGGAGAAGGCACAUGAGGAUCACCCAUGUGAAUC [EX4 C.18] (Eterna round: R97, puzzle: Exclusion 4)", "values": [{"measurement": "apparent KD of MS2 coat protein", "setting": "input ligand: FMN 200 uM", "result": 25.7, "unit": "nM"}, {"measurement": "apparent KD of MS2 coat protein", "setting": "input ligand: none", "result": 18.8, "unit": "nM"}]}
{"sequence": "AAUCUACAUGUAGGAUAUGCGUGGCAAAGCUAUGCAGAAGGACAUGAGGAUCACCCAUGUUUUAGCGUCUGCGUACAGAUGCGA [Mat - Exclusion NG 1 - Mod of JL - D100] (Eterna round: R96, puzzle: Exclusion NG 1)", "values": [{"measurement": "apparent KD of MS2 coat protein", "setting": "input ligand: FMN 200 uM", "result": 147, "unit": "nM"}, {"measurement": "apparent KD of MS2 coat protein", "setting": "[4]", "result": 18.4, "unit": "nM"}, {"measurement": "apparent KD of MS2 coat protein", "setting": "input ligand: none", "result": 27.9, "unit": "nM"}]}
{"sequence": "AAUGAGCAAGUCAGGAUAUUAAGCCACAGCUGGCGUAAGAAGGGACAUGAGGAUCACCCAUGUUCAUCCAAUGG [Eternabot (Original) Solution 15] (Eterna round: R97, puzzle: Brourd's mod of Exclusion 4)", "values": [{"measurement": "apparent KD of MS2 coat protein", "setting": "input ligand: FMN 200 uM", "result": 24.5, "unit": "nM"}, {"measurement": "apparent KD of MS2 coat protein", "setting": "input ligand: none", "result": 15.9, "unit": "nM"}]}
{"sequence": "AAUGAUUGACGAGGAUAUUGUGGUGAAACACGACGAGAAGGCGUAUGUCACAUGAGGAUCACCCAUGUGUGCUUUGUGGAUAUA [Ex NG1 #69] (Eterna round: R96, puzzle: Exclusion NG 1)", "values": [{"measurement": "apparent KD of MS2 coat protein", "setting": "input ligand: FMN 200 uM", "result": 39.7, "unit": "nM"}, {"measurement": "apparent KD of MS2 coat protein", "setting": "[4]", "result": 24.2, "unit": "nM"}, {"measurement": "apparent KD of MS2 coat protein", "setting": "input ligand: none", "result": 31.1, "unit": "nM"}]}
{"sequence": "AAUUAAACAAGCAGAUCCCACAUGAGGAUCACCCAUGUGCUCGUCUUAUAAGGUACUGUGACAAAAGUCACGGUACC [Mat - Sensor, turn-off var - Eli Mod - D67] (Eterna round: R97, puzzle: Sensor, turn-off variant 1)", "values": [{"measurement": "apparent KD of MS2 coat protein", "setting": "input ligand: FMN 200 uM", "result": 47.9, "unit": "nM"}, {"measurement": "apparent KD of MS2 coat protein", "setting": "input ligand: none", "result": 51.7, "unit": "nM"}]}
{"sequence": "AAUUAACAUCAGGAUAUGACUAGCGAUAGCUAGUCAGAAGGGAUGACAUGAGGAUCACCCAUGUGAUCAAUUAA [E6/2-A4] (Eterna round: R97, puzzle: Exclusion 6)", "values": [{"measurement": "apparent KD of MS2 coat protein", "setting": "input ligand: FMN 200 uM", "result": 492, "unit": "nM"}, {"measurement": "apparent KD of MS2 coat protein", "setting": "input ligand: none", "result": 131, "unit": "nM"}]}
{"sequence": "AAUUAAUAUCAGGAUAUGACGUGCGAUAGCACGUCAGAAGGGAUGACAUGAGGAUCACCCAUGUGAUCAAUUAA [E6/1-A4] (Eterna round: R97, puzzle: Exclusion 6)", "values": [{"measurement": "apparent KD of MS2 coat protein", "setting": "input ligand: FMN 200 uM", "result": 150, "unit": "nM"}, {"measurement": "apparent KD of MS2 coat protein", "setting": "input ligand: none", "result": 33, "unit": "nM"}]}
{"sequence": "AAUUAGUAUGUGAGGAUAUUAAUGGAAUGACUUAUUAAGAAGGCACAUGAGGAUCACCCAUGUGGGAAGUCACG [JR_BMEx4_Sub013] (Eterna round: R97, puzzle: Brourd's mod of Exclusion 4)", "values": [{"measurement": "apparent KD of MS2 coat protein", "setting": "input ligand: FMN 200 uM", "result": 49.2, "unit": "nM"}, {"measurement": "apparent KD of MS2 coat protein", "setting": "input ligand: none", "result": 15.6, "unit": "nM"}]}
{"sequence": "AAUUAUUAUUGAGGAUAUGGUAGUGAAACACUACCAGAAGGCGGUAUAAACAUGAGGAUCACCCAUGUGAGCCUGAUGCUUAUG [Ex NG1 #45] (Eterna round: R96, puzzle: Exclusion NG 1)", "values": [{"measurement": "apparent KD of MS2 coat protein", "setting": "[4]", "result": 18.6, "unit": "nM"}]}
{"sequence": "AAUUAUUGAUGAGGAUAUUGUGGUGAAACACCACAAGAAGGCAUUAUACACAUGAGGAUCACCCAUGUGAGCCUGAUGCAUAUA [Ex NG1 #56] (Eterna round: R96, puzzle: Exclusion NG 1)", "values": [{"measurement": "apparent KD of MS2 coat protein", "setting": "[4]", "result": 13.2, "unit": "nM"}]}
{"sequence": "AAUUAUUGAUGAGGAUAUUGUGGUGAAACACGACGAGAAGGCAUAUGUCACAUGAGGAUCACCCAUGUGAGCCUUGUGCAUAUA [Ex NG1 #64] (Eterna round: R96, puzzle: Exclusion NG 1)", "values": [{"measurement": "apparent KD of MS2 coat protein", "setting": "[4]", "result": 15.8, "unit": "nM"}]}
{"sequence": "AAUUAUUUAUGAGGAUAUUGUGGUGAAACACCACAAGAAGGCAUGAUACACAUGAGGAUCACCCAUGUGAGCCUUAUGCAUAUA [Ex NG1 #57] (Eterna round: R96, puzzle: Exclusion NG 1)", "values": [{"measurement": "apparent KD of MS2 coat protein", "setting": "[4]", "result": 16.5, "unit": "nM"}]}
